Data on 1 molecule can be found in paper PMC4208029 (Scientific Reports, 2014).

The target of the assay is T1, human full-length glucose transporter GLUT-1 (human, UniProt P11166 1-492).
T1 sequence (looked up): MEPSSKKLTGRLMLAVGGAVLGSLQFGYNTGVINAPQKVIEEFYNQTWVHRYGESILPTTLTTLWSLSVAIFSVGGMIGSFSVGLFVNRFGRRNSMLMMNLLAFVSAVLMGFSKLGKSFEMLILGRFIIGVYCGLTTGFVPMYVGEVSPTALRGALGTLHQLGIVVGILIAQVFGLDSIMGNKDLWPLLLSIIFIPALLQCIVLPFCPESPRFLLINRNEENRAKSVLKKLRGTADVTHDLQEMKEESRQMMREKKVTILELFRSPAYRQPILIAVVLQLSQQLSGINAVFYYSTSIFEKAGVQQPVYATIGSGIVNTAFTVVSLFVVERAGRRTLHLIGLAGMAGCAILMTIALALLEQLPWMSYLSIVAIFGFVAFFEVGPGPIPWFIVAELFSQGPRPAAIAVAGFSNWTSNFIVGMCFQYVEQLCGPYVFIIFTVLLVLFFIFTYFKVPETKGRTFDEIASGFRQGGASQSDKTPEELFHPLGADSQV
In words: SPR.

B1: Nb-GLUT-1 (VHH)
VHH: QVQLLESGGGLVQPGGSLRLSCAASGFTFSSYAMSWVRQAPGKGLEWVSTITAKGRQTYYADSVKGRFTISRDNSKNTLYLQMNSLRAEDTAVYYCATGPMYQPQFGSWGQGTLVTVSS
Consider B1, for which the Kd was determined as 22.3 nM, the off-rate (koff) was 0.0016 s⁻¹ and the association rate constant (kon) was 120000 M⁻¹ s⁻¹.
